Source: paper PMC4642984, “CRY Drives Cyclic CK2-Mediated BMAL1 Phosphorylation to Control the Mammalian Circadian Clock” (PLoS Biology, 2015)

Target: T1, ELucC-BMAL1 (mouse, UniProt Q9WTL8-2 1-625)
T1 construct: full-length mouse BMAL1 cDNA ligated downstream of ELucC; also called ELucC-BMAL1-WT (full length); ELucC-mBMAL1; source: Cos7 cells, transfected, in living cells; not shown: ELucC (C-terminal fragment of Emerald luciferase), N-terminal, kept
Assay: split reporter (BiFC, NanoBiT); Split Luc complementation in living Cos7 cells transfected with ELucN-CK2β and ELucC-BMAL1 (WT or mutant) together with pcDNA, Myc-HA-CRY1, Myc-CRY2 or FLAG-CRY1 (WT or Cd1-4); real-time bioluminescence, averaged peak values
Details: partners not purified

T1 sequence (Q9WTL8 other isoform, or with tags, fused parts or gaps): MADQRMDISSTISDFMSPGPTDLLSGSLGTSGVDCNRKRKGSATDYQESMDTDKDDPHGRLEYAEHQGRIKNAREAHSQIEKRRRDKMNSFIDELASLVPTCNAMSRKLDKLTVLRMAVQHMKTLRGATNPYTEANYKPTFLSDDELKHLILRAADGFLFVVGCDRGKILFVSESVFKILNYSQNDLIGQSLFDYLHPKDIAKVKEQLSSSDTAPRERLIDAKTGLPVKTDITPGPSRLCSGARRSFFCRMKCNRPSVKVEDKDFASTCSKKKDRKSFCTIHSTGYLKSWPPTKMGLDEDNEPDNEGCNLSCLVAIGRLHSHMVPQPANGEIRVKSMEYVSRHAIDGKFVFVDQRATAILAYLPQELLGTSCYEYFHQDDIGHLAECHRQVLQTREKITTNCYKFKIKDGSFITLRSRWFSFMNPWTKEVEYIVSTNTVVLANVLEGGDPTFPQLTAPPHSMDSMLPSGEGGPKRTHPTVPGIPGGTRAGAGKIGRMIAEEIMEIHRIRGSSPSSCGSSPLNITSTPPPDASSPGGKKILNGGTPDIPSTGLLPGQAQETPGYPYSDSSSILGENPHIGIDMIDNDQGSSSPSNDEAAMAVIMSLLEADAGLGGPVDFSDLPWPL

B1: ELucN-CK2β (natural protein)
chain: not shown
notes: full-length human CK2β cDNA ligated downstream of ELucN; Vector backbone pcDNA4/V5-His (B) or pcDNA3.1; also called CMV-ELucN-CK2β; source: Cos7 or U-2OS cells, transfected, in living cells; not shown: ELucN (N-terminal fragment of Emerald luciferase), N-terminal, kept
fold increase of Split Luc bioluminescence in the presence of CRY proteins: ~4 fold | fold increase of Split Luc bioluminescence on over-expression of Myc-tagged CRY1 or CRY2: ~6 fold
